{"source": "patent US20210364527A1", "binders": {"B1": {"name": "PS372 (ClpS homolog) (protein)", "chain": "MAFPARGKTAPKNEVRRQPPYNVILLNDDDHTYRYVIEMLQKIFGFPPEKGFQIAEEVDRTGRVILLTTSKEHAELKQDQVHSYGPDPYLGRPCSGSMTCVIEPAV"}, "B2": {"name": "PS703 (atClpS2-V1-SNAP TAG fusion) (designed binder)", "chain": "MSDSPVDLKPKPKVKPKLERPKLYKVMLLNDDYTPMSFVTVVLKAVFRMSEDTGRRVMMTAHRFGSAVVVVCERDIAETKAKEATDLGKEAGFPLMFTTEPEEGSAGSAAGSGEFMDKDCEMKRTTLDSPLGKLELSGCEQGLHEIKLLGKGTSAADAVEVPAPAAVLGGPEPLMQATAWLNAYFHQPEAIEEFPVPALHHPVFQQESFTRQVLWKLLKVVKFGEVISYQQLAALAGNPAATAAVKTALSGNPVPILIPCHRVVSSSGAVGGYEGGLAVKEWLLAHEGHRLGKPGLGGSAGSAAGSGEFHHHHHHHHHHGGGSGGGSGGGSGLNDFFEAQKIEWHEGGGSGGGSGGGSGLNDFFEAQKIEWHE"}, "B3": {"name": "PS706 (atClpS2-V1-EF fusion) (designed binder)", "chain": "MSDSPVDLKPKPKVKPKLERPKLYKVMLLNDDYTPMSFVTVVLKAVFRMSEDTGRRVMMTAHRFGSAVVVVCERDIAETKAKEATDLGKEAGFPLMFTTEPEEGSAGSAAGSGEFMIKKYTGDFETTTDLNDCRVWSWGVCDIDNVDNITFGLEIDSFFEWCEMQGSTDIYFHDEKFDGEFMLSWLFKNGFKWCKEAKEERTFSTLISNMGQWYALEICWNVKCTTTKTGKTKKEKQRTIIYDSLKKYPFPVKEIAEAFNFPIKKGEIDYTKERPIGYNPTDDEWDYLKNDIQIMAMALKIQFDQGLTRMTRGSDALGDYQDWVKTTYGKSRFKQWFPVLSLGFDKDLRKAYKGGFTWVNKVFQGKEIGEGIVFDVNSLYPSQMYVRPLPYGTPLFYEGEYKENIDYPLYIQNIKVRFRLKERHIPTIQVKQSSLFIQNEYLESSVNKLGVDELIDLTLTNVDLDLFFEHYDILEIHYTYGYMFKASCDMFKGWIDKWIEVKNTTEGARKANAKGMLNSLYGKFGTNPDITGKVPYMGEDGIVRLTLGEEELRDPVYVPLASFVTAWGRYTTITTAQRCFDNIIYCDTDSIHLTGTEVPEAIEHLVDSKKLGYWKHESTFQRAKFIRQKTYVEEIDGELNVKCAGMPDRIKELVTFDNFEVGFSSYGKLLPKRTQGGVVLVDTMFTIKGSAGSAAGSGEFHHHHHHHHHHGGGSGGGSGGGSGLNDFFEAQKIEWHEGGGSGGGSGGGSGLNDFFEAQKIEWHE"}, "B4": {"name": "Planctomycetia bacterium ClpS homolog (PS557) (protein)", "chain": "MPTAASATESAIEDTPAPARPEVDGRTKPKRQPRYHVVLWNDDDHTYQYVVVMLQSLFGHPPERGYRLAKEVDTQGRVIVLTTTREHAELKRDQIHAFGYDRLLARSKGSMKASIEAEE"}, "B5": {"name": "PS696 (PS557-SNAP TAG fusion) (designed binder)", "chain": "MPTAASATESAIEDTPAPARPEVDGRTKPKRQPRYHVVLWNDDDHTYQYVVVMLQSLFGHPPERGYRLAKEVDTQGRVIVLTTTREHAELKRDQIHAFGYDRLLARSKGSMKASIEAEEGSAGSAAGSGEFMDKDCEMKRTTLDSPLGKLELSGCEQGLHEIKLLGKGTSAADAVEVPAPAAVLGGPEPLMQATAWLNAYFHQPEAIEEFPVPALHHPVFQQESFTRQVLWKLLKVVKFGEVISYQQLAALAGNPAATAAVKTALSGNPVPILIPCHRVVSSSGAVGGYEGGLAVKEWLLAHEGHRLGKPGLGGSAGSAAGSGEFHHHHHHHHHHGGGSGGGSGGGSGLNDFFEAQKIEWHEGGGSGGGSGGGSGLNDFFEAQKIEWHE"}, "B6": {"name": "Agrobacterium tumifaciens ClpS1 (atClpS1) (protein)", "chain": "MIAEPICMQGEGDGEDGGTNRGTSVITRVKPKTKRPNLYRVLLLNDDYTPMEFVIHILERFFQKDREAATRIMLHVHQHGVGECGVFTYEVAETKVSQVMDFARQHQHPLQCVMEKK"}, "B7": {"name": "PS705 (atClpS2-V1-SNAP TAG fusion 2) (designed binder)", "chain": "MSDSPVDLKPKPKVKPKLERPKLYKVMLLNDDYTPMSFVTVVLKAVFRMSEDTGRRVMMTAHRFGSAVVVVCERDIAETKAKEATDLGKEAGFPLMFTTEPEEHHHHHHHHHHGGGSGGGSGGGSGLNDFFEAQKIEWHEGGGSGGGSGGGSGLNDFFEAQKIEWHEGSAGSAAGSGEFMDKDCEMKRTTLDSPLGKLELSGCEQGLHEIKLLGKGTSAADAVEVPAPAAVLGGPEPLMQATAWLNAYFHQPEAIEEFPVPALHHPVFQQESFTRQVLWKLLKVVKFGEVISYQQLAALAGNPAATAAVKTALSGNPVPILIPCHRVVSSSGAVGGYEGGLAVKEWLLAHEGHRLGKPGLG"}, "B8": {"name": "PS698 (PS557-SNAP TAG fusion 2) (designed binder)", "chain": "MPTAASATESAIEDTPAPARPEVDGRTKPKRQPRYHVVLWNDDDHTYQYVVVMLQSLFGHPPERGYRLAKEVDTQGRVIVLTTTREHAELKRDQIHAFGYDRLLARSKGSMKASIEAEEHHHHHHHHHHGGGSGGGSGGGSGLNDFFEAQKIEWHEGGGSGGGSGGGSGLNDFFEAQKIEWHEGSAGSAAGSGEFMDKDCEMKRTTLDSPLGKLELSGCEQGLHEIKLLGKGTSAADAVEVPAPAAVLGGPEPLMQATAWLNAYFHQPEAIEEFPVPALHHPVFQQESFTRQVLWKLLKVVKFGEVISYQQLAALAGNPAATAAVKTALSGNPVPILIPCHRVVSSSGAVGGYEGGLAVKEWLLAHEGHRLGKPGLG"}, "B9": {"name": "PS704 (atClpS2-V1-2xSNAP TAG fusion) (designed binder)", "chain": "MSDSPVDLKPKPKVKPKLERPKLYKVMLLNDDYTPMSFVTVVLKAVFRMSEDTGRRVMMTAHRFGSAVVVVCERDIAETKAKEATDLGKEAGFPLMFTTEPEEGSAGSAAGSGEFMDKDCEMKRTTLDSPLGKLELSGCEQGLHEIKLLGKGTSAADAVEVPAPAAVLGGPEPLMQATAWLNAYFHQPEAIEEFPVPALHHPVFQQESFTRQVLWKLLKVVKFGEVISYQQLAALAGNPAATAAVKTALSGNPVPILIPCHRVVSSSGAVGGYEGGLAVKEWLLAHEGHRLGKPGLGMDKDCEMKRTTLDSPLGKLELSGCEQGLHEIKLLGKGTSAADAVEVPAPAAVLGGPEPLMQATAWLNAYFHQPEAIEEFPVPALHHPVFQQESFTRQVLWKLLKVVKFGEVISYQQLAALAGNPAATAAVKTALSGNPVPILIPCHRVVSSSGAVGGYEGGLAVKEWLLAHEGHRLGKPGLGGSAGSAAGSGEFHHHHHHHHHHGGGSGGGSGGGSGLNDFFEAQKIEWHEGGGSGGGSGGGSGLNDFFEAQKIEWHE"}, "B10": {"name": "H. sapiens Fyn SH2 domain triple mutant superbinder (designed binder)", "chain": "MGAMDSIQAEEWYFGKLGRKDAERQLLSFGNPRGTFLIRESETVKGAYALSIRDWDDMKGDHVKHYLIRKLDNGGYYITTRAQFETLQQLVQHYSERAAGLSSRLVVPSHK"}}, "key": {"[1]": {"molecular_target": "T1, N-terminal leucine peptide …", "T1 sequence (peptide)": "LAAIAAFAADDDW", "test": "peptide-on-chip recognition assay, dye-labelled PS372"}, "[2]": {"molecular_target": "IA peptide (N-terminal isoleucine, penultimate alanine; rest of sequence not given)", "test": "binder-on-chip single-molecule assay"}, "[3]": {"molecular_target": "IR peptide (N-terminal IR; rest of sequence not given)", "test": "binder-on-chip single-molecule assay"}, "[4]": {"molecular_target": "IR peptide (N-terminal IR; rest of sequence not given)", "test": "binder-on-chip, run 94158"}, "[5]": {"molecular_target": "T2, LA peptide (N-terminal leucine, penultimate alanine; rest of sequence not given)", "test": "binder-on-chip single-molecule assay"}, "[6]": {"molecular_target": "FA peptide (N-terminal phenylalanine, penultimate alanine; rest of sequence not given)", "test": "stopped-flow, complex mixed with excess unlabelled trap peptide"}, "[7]": {"molecular_target": "T2, LA peptide (N-terminal leucine, …)", "test": "stopped-flow, complex mixed with excess unlabelled trap peptide"}, "[8]": {"molecular_target": "peptide having an N-terminal tryptophan residue (rest of sequence not given)"}, "[9]": {"molecular_target": "polypeptide with a terminal leucine residue (rest of sequence not given)"}, "[10]": {"molecular_target": "peptide having an N-terminal phenylalanine residue (rest of sequence not given)"}, "[11]": {"molecular_target": "peptide having an N-terminal (unmodified) tyrosine residue (rest of sequence not given)"}, "[12]": {"molecular_target": "fluorescently-labeled peptide containing N-terminal phospho-tyrosine", "test": "single-molecule, SH2 variant immobilized in sample wells, labeled peptide in solution; bottom plot (bottom trace of FIG. 22A)"}, "[13]": {"molecular_target": "peptide containing N-terminal phospho-serine", "test": "negative control, single-molecule, SH2 variant immobilized, labeled phospho-serine peptide in solution; top trace"}, "[14]": {"molecular_target": "peptide containing N-terminal phospho-serine", "test": "negative control, single-molecule, SH2 variant immobilized, labeled phospho-serine peptide in solution; bottom trace"}, "[15]": {"molecular_target": "fluorescently-labeled peptide containing N-terminal phospho-tyrosine", "test": "single-molecule, SH2 variant immobilized in sample wells, labeled peptide in solution; bottom panel"}, "[16]": {"molecular_target": "fluorescently-labeled peptide containing N-terminal phospho-tyrosine", "test": "single-molecule, SH2 variant immobilized in sample wells, labeled peptide in solution; top plot (top trace of FIG. 22A)"}, "[17]": {"molecular_target": "fluorescently-labeled peptide containing N-terminal phospho-tyrosine", "test": "single-molecule, SH2 variant immobilized in sample wells, labeled peptide in solution; top panel"}, "[18]": {"molecular_target": "fluorescently-labeled peptide containing N-terminal phospho-tyrosine", "test": "single-molecule, SH2 variant immobilized in sample wells, labeled peptide in solution; middle plot (middle trace of FIG. 22A)"}, "[19]": {"molecular_target": "peptide containing N-terminal phospho-serine", "test": "negative control, single-molecule, SH2 variant immobilized, labeled phospho-serine peptide in solution; middle trace"}}, "data": [{"binder": "B1", "values": [{"measurement": "mean pulse width", "setting": "[1]", "result": 957, "unit": "ms"}, {"measurement": "pulse duration", "setting": "[2]", "result": 70, "unit": "ms"}, {"measurement": "pulse duration", "setting": "[3]", "result": 83, "unit": "ms"}, {"measurement": "Median pulse width", "setting": "[4]", "result": 64, "unit": "ms"}, {"measurement": "mean pulse width", "setting": "[4]", "result": 86, "unit": "ms"}, {"measurement": "mean pulse width", "setting": "[5]", "result": 876, "unit": "ms"}]}, {"binder": "B2", "values": [{"measurement": "koff", "setting": "[6]", "result": 0.767, "unit": "s⁻¹"}]}, {"binder": "B3", "values": [{"measurement": "koff", "setting": "[6]", "result": 0.589, "unit": "s⁻¹"}]}, {"binder": "B4", "values": [{"measurement": "koff", "setting": "[7]", "result": 0.22, "unit": "s⁻¹"}]}, {"binder": "B5", "values": [{"measurement": "koff", "setting": "[7]", "result": 0.15, "unit": "s⁻¹"}]}, {"binder": "B6", "values": [{"measurement": "mean pulse duration (dashed line of the distribution)", "setting": "[8]", "result": 0.34, "unit": "s"}, {"measurement": "mean pulse duration (dashed line of the distribution)", "setting": "[9]", "result": 0.31, "unit": "s"}, {"measurement": "mean pulse duration (dashed line of the distribution)", "setting": "[10]", "result": 0.59, "unit": "s"}, {"measurement": "mean pulse duration (dashed line of the distribution)", "setting": "[11]", "result": 0.69, "unit": "s"}]}, {"binder": "B7", "values": [{"measurement": "koff", "setting": "[6]", "result": 1.27, "unit": "s⁻¹"}]}, {"binder": "B8", "values": [{"measurement": "koff", "setting": "[7]", "result": 0.19, "unit": "s⁻¹"}]}, {"binder": "B9", "values": [{"measurement": "koff", "setting": "[6]", "result": 0.677, "unit": "s⁻¹"}]}, {"binder": "B10", "values": [{"measurement": "pulse duration, M (median) of one trace", "setting": "[12]", "result": 0.17, "unit": "s"}, {"measurement": "pulse duration, μ (mean) of one trace", "setting": "[12]", "result": 0.26, "unit": "s"}, {"measurement": "pulse duration, M (median) of one trace", "setting": "[13]", "result": 0.09, "unit": "s"}, {"measurement": "pulse duration, μ (mean) of one trace", "setting": "[13]", "result": 0.09, "unit": "s"}, {"measurement": "pulse duration, M (median) of one trace", "setting": "[14]", "result": 0.1, "unit": "s"}, {"measurement": "pulse duration, μ (mean) of one trace", "setting": "[14]", "result": 0.16, "unit": "s"}, {"measurement": "mean interpulse duration (dashed line of the distribution)", "setting": "[15]", "result": 0.51, "unit": "s"}, {"measurement": "pulse duration, M (median) of one trace", "setting": "[16]", "result": 0.15, "unit": "s"}, {"measurement": "pulse duration, μ (mean) of one trace", "setting": "[16]", "result": 0.25, "unit": "s"}, {"measurement": "mean pulse duration (dashed line of the distribution)", "setting": "[17]", "result": 0.26, "unit": "s"}, {"measurement": "pulse duration, M (median) of one trace", "setting": "[18]", "result": 0.15, "unit": "s"}, {"measurement": "pulse duration, μ (mean) of one trace", "setting": "[18]", "result": 0.23, "unit": "s"}, {"measurement": "pulse duration, M (median) of one trace", "setting": "[19]", "result": 0.11, "unit": "s"}, {"measurement": "pulse duration, μ (mean) of one trace", "setting": "[19]", "result": 0.15, "unit": "s"}]}]}
